Assay results from patent US8404647B2, “Peptidylarginine deiminase (PAD) inhibitors” (Chiralix B.V., priority 2008, dated 2013).
Numbered stars: 1 amine (or outer) side, 2 acyl side, 3 side chain; on linkers, the order of the positions; unused ones are H or OH. Square brackets hold non-standard residues; d marks the D form. Peptide text beside a SMILES is read from it. * marks the point of attachment. Orn(fluoroacetimidoyl) = N=C(CF)NCCC[C@H](N)C(=O)O; X1 = N=C(CCl)NCCC[C@H](N[*:1])C(=O)[*:2]; Moc = COC(=O)*

Experiments:
[1] = molecular target: creatine kinase (CK); assay: Creatine kinase activity (CK NAC activated liquiUV test); assay type: biochemical, mammalian; settings: enzyme treated with inhibitor 10 min at room temperature
Method: (§3) The activities of CK and TG (both purchased from Sigma-Aldrich (Schnelldorf, Germany) were assayed with the help of the commercial kits CK NAC activated liquiUV test form
(§4) Human GmbH (Wiesbaden, Germany) and the Enzymatic Assay of [sequence] from Sigma-Aldrich (Schnelldorf, Germany) according to the manufacturers' instructions.

[2] = molecular target: T1, caspase-3 (Homo sapiens, UniProt P42574); assay: Caspase-3 activity assay (Ac-DEVDpNA cleavage); assay type: biochemical, mammalian; settings: enzyme treated with inhibitor 10 min at room temperature
T1 sequence (P42574 29-175 limits assumed): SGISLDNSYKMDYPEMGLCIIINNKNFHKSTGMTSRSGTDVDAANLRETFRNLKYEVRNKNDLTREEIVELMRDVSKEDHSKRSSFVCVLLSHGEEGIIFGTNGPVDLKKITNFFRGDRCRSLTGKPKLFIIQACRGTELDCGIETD
T1 sequence (P42574 176-277 limits assumed): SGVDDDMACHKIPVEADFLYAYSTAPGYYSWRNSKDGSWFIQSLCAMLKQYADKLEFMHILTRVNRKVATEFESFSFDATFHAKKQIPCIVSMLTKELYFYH
Method: Upon incubation of purified recombinant caspase-3 with its commercially available substrate: acetyl-Asp-Glu-Val-Asp-p-nitroanilide (Ac-DEVDpNA) SEQ ID NO: 145 in CFS buffer (220 mM mannitol, 68 mM sucrose, 2mM NaCl, 2.5 mM KH2PO4, 10 mM HEPES, pH 7.4 plus a cocktail of protease inhibitors), the substrate is cleaved, pNA is released and its absorbance at 405 nm can be monitored.

[3] = molecular target: papain (Carica papaya, UniProt P00784); assay: biochemical
Chain of papain (P00784 134-345): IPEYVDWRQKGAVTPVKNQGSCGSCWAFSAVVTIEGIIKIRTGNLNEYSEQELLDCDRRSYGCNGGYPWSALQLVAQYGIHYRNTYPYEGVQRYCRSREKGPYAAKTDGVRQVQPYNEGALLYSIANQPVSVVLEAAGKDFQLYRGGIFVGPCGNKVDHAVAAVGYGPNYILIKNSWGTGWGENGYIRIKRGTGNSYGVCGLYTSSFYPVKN
Method: The activity of papain was assessed using a similar experimental setting, based on its cleavage of pGlu-Phe-Leu-pNA in reaction buffer (25 mM Tris-HCL, pH 7.6; 150 mM NaCl).

[4] = molecular target: transglutaminase (TG) (UniProt P08587); assay: biochemical
Chain of transglutaminase (TG) (P08587 whole entry): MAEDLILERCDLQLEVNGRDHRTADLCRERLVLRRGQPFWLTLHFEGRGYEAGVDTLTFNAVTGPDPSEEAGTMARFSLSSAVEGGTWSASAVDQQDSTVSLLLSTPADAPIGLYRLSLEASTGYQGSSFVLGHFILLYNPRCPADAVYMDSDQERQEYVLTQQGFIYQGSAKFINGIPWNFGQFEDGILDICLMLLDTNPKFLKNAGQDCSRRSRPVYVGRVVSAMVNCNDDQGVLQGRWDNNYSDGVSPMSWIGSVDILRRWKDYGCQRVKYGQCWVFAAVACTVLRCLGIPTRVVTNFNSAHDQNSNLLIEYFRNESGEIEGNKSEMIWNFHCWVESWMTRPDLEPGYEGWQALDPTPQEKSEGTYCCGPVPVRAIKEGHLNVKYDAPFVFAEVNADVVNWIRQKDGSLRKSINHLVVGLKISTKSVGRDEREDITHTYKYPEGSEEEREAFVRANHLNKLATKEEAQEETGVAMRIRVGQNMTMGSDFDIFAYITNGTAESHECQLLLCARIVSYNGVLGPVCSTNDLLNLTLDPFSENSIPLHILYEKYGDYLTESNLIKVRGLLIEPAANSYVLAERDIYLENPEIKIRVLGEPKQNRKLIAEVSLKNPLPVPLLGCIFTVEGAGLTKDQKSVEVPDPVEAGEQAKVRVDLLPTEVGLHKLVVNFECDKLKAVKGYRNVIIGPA
Method: as §3, §4

[5] = system: PAD2; settings: low doses, in vitro; cited from earlier work
[6] = molecular target: T2, PAD4 (Homo sapiens, UniProt Q9UM07); assay: Citrullination of synthetic peptides by recombinant human PAD4 (MALDI-TOF and ESI-Q-TOF mass spectrometry); assay type: biochemical; design: His6; made in house; settings: for PAD4 conversion: Arg: share of peptide still unconverted (Arg); for PAD4 conversion: 1 Cit: share of peptide with one citrulline; for PAD4 conversion: 2 Cit: share of peptide with two citrullines
T2 sequence (Q9UM07 whole entry, the tested form may be a part): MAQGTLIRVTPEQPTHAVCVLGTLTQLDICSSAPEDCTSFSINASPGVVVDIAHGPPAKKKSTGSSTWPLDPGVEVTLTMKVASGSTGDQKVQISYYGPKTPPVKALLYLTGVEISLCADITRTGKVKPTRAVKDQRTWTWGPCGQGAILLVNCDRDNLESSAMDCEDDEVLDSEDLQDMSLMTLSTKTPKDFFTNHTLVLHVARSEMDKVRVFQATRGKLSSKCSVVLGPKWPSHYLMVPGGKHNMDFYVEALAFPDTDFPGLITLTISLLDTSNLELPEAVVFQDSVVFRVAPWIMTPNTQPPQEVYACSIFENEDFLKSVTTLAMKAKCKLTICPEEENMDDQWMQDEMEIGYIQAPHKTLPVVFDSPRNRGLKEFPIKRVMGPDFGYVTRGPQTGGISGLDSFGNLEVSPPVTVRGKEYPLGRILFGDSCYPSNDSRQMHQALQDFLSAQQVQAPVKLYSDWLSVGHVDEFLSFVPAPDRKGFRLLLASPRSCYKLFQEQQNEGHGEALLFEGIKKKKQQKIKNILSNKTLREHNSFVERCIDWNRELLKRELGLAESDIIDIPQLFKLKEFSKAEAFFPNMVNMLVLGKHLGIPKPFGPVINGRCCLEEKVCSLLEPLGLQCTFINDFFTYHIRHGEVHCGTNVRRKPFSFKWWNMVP
Method: (§1) Subsequently, the citrullinated proteins were isolated from the cell lysates by immunoaffinity purification using the RA3 single chain antibody fragment (scFv), which is specific for citrullinated epitopes {Raats et al., 2003}. After digestion of the purified proteins with trypsin, the amino acid sequence of the resulting peptides was determined by tandem mass spectrometry. Based upon the mass spectrometry data the peptides containing citrullinated residues were identified. In total 90 and 57 citrullinated peptides were identified in proteins derived from the COS-1 cells expressing PAD2 and PAD4, respectively, and 107 and 38 citrullinated peptides were obtained from HEK-293 cell material for PAD2 and PAD4, respectively. The frequency of amino acids at each of the positions between 5 residues N-terminal and 5 residues C-terminal from a citrullinated residue was derived from the combined sequences of these sites and is illustrated in Table 1. […] The efficiency by which these peptides were citrullinated by the human PAD2 and PAD4 enzymes was investigated by incubating them with the bacterially expressed, His6-tagged and IMAC purified, recombinant enzymes, followed by analysis of the products by both MALDI-TOF and ESI-Q-TOF mass spectrometry.

[7] = molecular target: T3, PAD2 (Homo sapiens, UniProt Q9Y2J8); assay: Conversion (R to Cit) of substrate peptides by PAD2, mass spectrometry; assay type: biochemical
T3 sequence (Q9Y2J8 whole entry): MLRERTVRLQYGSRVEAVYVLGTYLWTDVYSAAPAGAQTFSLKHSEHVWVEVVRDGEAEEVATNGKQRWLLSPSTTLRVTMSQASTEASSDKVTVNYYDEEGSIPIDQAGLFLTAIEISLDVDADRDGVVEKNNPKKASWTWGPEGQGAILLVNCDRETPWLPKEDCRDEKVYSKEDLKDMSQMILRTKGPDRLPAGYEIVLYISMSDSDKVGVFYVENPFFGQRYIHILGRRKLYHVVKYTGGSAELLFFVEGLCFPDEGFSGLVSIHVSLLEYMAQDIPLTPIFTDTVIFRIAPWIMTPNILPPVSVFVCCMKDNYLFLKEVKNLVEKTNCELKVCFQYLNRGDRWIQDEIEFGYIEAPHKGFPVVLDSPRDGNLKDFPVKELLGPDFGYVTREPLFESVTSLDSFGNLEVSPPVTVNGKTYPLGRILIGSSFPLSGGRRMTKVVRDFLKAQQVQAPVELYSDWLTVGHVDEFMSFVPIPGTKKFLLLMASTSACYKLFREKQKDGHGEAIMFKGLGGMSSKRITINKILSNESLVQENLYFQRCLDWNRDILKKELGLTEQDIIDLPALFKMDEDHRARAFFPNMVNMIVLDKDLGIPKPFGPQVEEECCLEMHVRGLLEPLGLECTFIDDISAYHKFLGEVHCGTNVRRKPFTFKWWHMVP
Method: In a similar fashion as for PAD4 we identified improved peptide substrates for PAD2. Again L1 was used as a lead compound. The set of 152 peptides from Table 3 was used and testing was performed as described before.
(§2) Conversion of arginine into citrulline in the substrate peptides by PAD2 or PAD4 using mass spectrometry was performed as follows. A candidate substrate peptide was incubated with a PAD as indicated for several hours at 37° C. The reaction was quenched by the addition with acetic acid. A sample was analysed on a Qtof mass spectrometer (Micromass, UK) and the mass spectrum was compared with that of the same peptide not treated with PAD. Normally, 2^+- and 3^+-ions are detected. The conversion (ΔM=0.98 Da) was calculated on the 2^+- and 3^+-ions individually, and subsequently averaged taking into account the relative peak height of the 2^+- and 3^+-signals (see FIG. 5).

[8] = molecular target: T3, PAD2; assay: Citrullination of synthetic peptides by recombinant human PAD2 (MALDI-TOF and ESI-Q-TOF mass spectrometry); assay type: biochemical; design: His6; made in house; settings: for PAD2 conversion: Arg: share of peptide still unconverted (Arg); for PAD2 conversion: 1 Cit: share of peptide with one citrulline; for PAD2 conversion: 2 Cit: share of peptide with two citrullines
Method: as §1

[9] = molecular target: T2, PAD4; assay: Conversion (R to Cit) of substrate peptides by PAD4, mass spectrometry; assay type: biochemical
Excerpt: From previous studies it was known that D-S-Q-F-A-F-R-G-A-S-A-S-D (designated here as L1: SEQ ID NO: 11) is a substrate for PAD2 and PAD 4. To obtain better substrates, and subsequently powerful inhibitors, we intended to identify structural elements that improve substrate properties. A set of 152 individual analog peptides was generated, each differing from L1 by one amino acid at one of the positions −4 to −1 or 1 to 4.
In Table 3 the conversion of each analog (R to Cit conversion) is depicted. Values of the analogs relate to the conversion of the analog compared to the conversion of L1 under standard conditions (100 means a conversion equal to L1, 50 means conversion of 50% of that of L1, 175 means conversion of 175% of that of L1). Numbers above 100 thus relate to amino acid substitutions that improve substrate properties.
Peptides of table 4 are represented by the following sequences SEQ ID NO: 22-31 and 33-46. Control peptide are represented by the following sequences SEQ ID NO: 11 as control L1 and SEQ ID NO: 32 as control L2. Unfortunately, a substantial number of designed peptides were too polar to be analyzed on our LC-MS system (indicated in Table 4 as n.t., not trapped on the column). We therefore also generated and tested these peptides containing two additional N-terminal F-residues to increase hydrophobicity. In this form peptides were trapped on the column and could be analyzed (see Table 5).
Based on the above results we designed 20 peptides containing multiple amino acids that improve substrate properties (see Table 7). The indicated peptides were synthesized and tested in order to identify the best substrate from this group. Here we used a test system with less enzyme (3 times less) compared to the experiments described above.
as §2

[10] = molecular target: His-tagged PAD4 (Homo sapiens, UniProt Q9UM07); assay: Binding of biotinylated inhibitor peptide to His-tagged PAD4 (SDS-PAGE and blot); settings: 3 h at 37° C.; binding resistant to boiling in the presence of SDS
Chain of His-tagged PAD4 (Q9UM07 whole entry): as the sequence (Q9UM07 whole entry, the tested form may be a part) above
Method: In the following experiments mixtures of various quantities of biotinylated inhibitor peptide (biotin-Ahx-D-S-K-K-H-D-O(FA)-D-F-L-Y-S-D-amide (SEQ ID NO: 112), O(FA)=ornithine fluoroamidine, Ahx=6-aminohexanoic acid) and a fixed amount of His-tagged PAD4 were analysed. In short, 10 μl PAD4 solution was mixed with 10 μl inhibitor solution and incubated for 3 h at 37° C. After the addition of loading buffer containing SDS, samples were either boiled for 5 minutes or kept at room temperature. Samples were loaded on a 10% polyacrylamide gel and subjected to electrophoresis (about 1 h). Proteins were transferred to a PVDF membrane and developed with either streptavidin-alkaline phosphatase conjugate (FIG. 2) or with mouse-anti-His antibody followed by goat-anti-mouse alkaline phosphatase conjugate (FIG. 3), followed by visualisation using NBT/BCIP. In Table 18 the samples are specified.
In FIG. 2 the biotin group of the inhibitor is visualised. Only lanes where the biotinylated inhibitor is present show a coloured band. The position of the bands is around the expected molecular weight of PAD4 (77 kDa). This indicates binding of the biotinylated peptide to PAD4. This binding is not broken by boiling of the sample in the presence of SDS. In FIG. 3 the His-tag of PAD4 is visualised. Only lanes where PAD4 is present show a coloured band. […]

Compound	PAD4 conversion: Arg [6]	PAD4 conversion: 1 Cit [6]	PAD2 conversion: Arg [8]	PAD2 conversion: 1 Cit [8]	PAD4 conversion: 2 Cit [6]	PAD2 conversion: 2 Cit [8]	other results
COC(=O)N[C@H](C(=O)N[C@@H](CC(=O)O)C(=O)N[C@@H](CCCNC(=N)CF)C(=O)NCC(=O)N[C@@H](CO)C(=O)OC)[C@@H](C)O [CXP5-101, MeO2C-T-D-O(FA)-G-S-methylester] (Moc-TD[Orn(fluoroacetimidoyl)]GS-OMe)	–	–	–	–	–	–	IC50 [1]: 780 µM
CC(=O)NCC(=O)N[C@@H](CC(=O)O)C(=O)N[C@@H](CCCNC(=N)CCl)C(=O)NCC(=O)N[C@@H](CO)C(=O)O [CXP5.2-078, Ac-G-D-O(CA)-G-S] (Ac-GD[X1]GS-OH; N-terminus and C-terminus assumed)	–	–	–	–	–	–	IC50 [1]: 780 µM
CC(=O)N[C@@H](CCCCN)C(=O)N[C@@H](Cc1c[nH]c2ccccc12)C(=O)N[C@@H](Cc1c[nH]cn1)C(=O)N[C@@H](CCCNC(=N)CF)C(=O)N[C@@H](CC(=O)O)C(=O)N[C@@H](Cc1ccccc1)C(=O)N[C@@H](Cc1ccccc1)C(N)=O [Peptide 0748-09FA, Ac-K-W-H-O(FA)-D-F-F-amide] (Ac-KWH[Orn(fluoroacetimidoyl)]DFF-NH2)	–	–	–	–	–	–	IC50 [2]: > 1000 µM; IC50 [3]: > 2000 µM; IC50 [4]: > 1000 µM
CC(=O)O[C@H]1C(=O)[C@@]2(C)[C@H]([C@H](OC(=O)c3ccccc3)[C@]3(O)C[C@H](OC(=O)[C@H](O)[C@@H](NC(=O)c4ccccc4)c4ccccc4)C(C)=C1C3(C)C)[C@]1(OC(C)=O)CO[C@@H]1C[C@@H]2O [paclitaxel]	–	–	–	–	–	–	inhibition of citrullination of MBP by PAD2 [5]: can inhibit citrullination of MBP by PAD2 in vitro
D-S-Q-F-A-F-R-G-A-S-A-S-D (DSQFAFRGASASD) [Peptide 0308-29, reference compound]	98%	2%	68%	32%	–	–	Conversion (%) ([7]; Table 9, PAD2): 45 (=L1) %; Conversion by PAD2 (%) ([7]; Table 10): <20(=L1) %; conversion of L1 analogs by PAD2 ([7]; relative to conversion of L1 (L1 = 100), single substitution at positions -4 to 4): 100%; Conversion (%) ([9]; Table 4, 13-mer peptides, PAD4): 30% (=L1); Conversion by PAD4 (%) ([9]; Table 10): <20(=L1) %; conversion of L1 analogs by PAD4 ([9]; relative to conversion of L1 under standard conditions (L1 = 100), single substitution at positions -4 to 4): 100%
DDYSSSRDGYGGS [SEQ ID NO: 1]	97%	3%	88%	12%	–	–	–
DGYGGSRDSYSSS [SEQ ID NO: 3]	97%	3%	54%	46%	–	–	–
DSEGTWRKGPEAD [SEQ ID NO: 8]	85%	15%	15%	85%	–	–	–
DSRFYWRGGGKSD [SEQ ID NO: 10]	6%	69%	14%	14%	25%	73%	–
DSSEELRGGGKSD [SEQ ID NO: 9]	93%	7%	43%	57%	–	–	–
DSYRSWRDGYYSD [SEQ ID NO: 4]	1%	99%	16%	30%	0%	55%	–
GGYSGDRSGGGYG [SEQ ID NO: 2]	61%	39%	33%	67%	–	–	–
IEIITDRQSGKKR [SEQ ID NO: 7]	2%	88%	5%	70%	10%	25%	–
IEIMTDRGSGKKR [SEQ ID NO: 5]	37%	60%	6%	34%	3%	60%	–
IGSRGDRSGFGKF [SEQ ID NO: 6]	2%	69%	1%	96%	29%	4%	–
biotin-Ahx-D-S-K-K-H-D-O(FA)-D-F-L-Y-S-D-amide [biotinylated inhibitory peptide]	–	–	–	–	–	–	mode of binding of the inhibitor to PAD4 [10]: covalent binding of the inhibitor to PAD4
